B1: C2orf65 (parent)
chain: QLDWDELETNQQHFHALCHSLLVS
B2: SETD8 (parent)
chain: GKQAPRKKAQGKTQQNRKLTDFYP

Variants of: B1
Assay: protein stability index of a GFP-peptide fusion (GPS, HEK-293T) (PSI 1-6); higher = more stable
Details: c terminus: a fixed tail appended
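Further: lentivirally expressed fusions sorted by FACS into six bins by GFP to DsRed ratio, PSI derived from sequencing read proportions per bin multiplied by bin number.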

Protein stability index: each site, then its substitutions
Q1: T 2.06 | D 2.67 | R 1.96 | A 2.11 | H 2.22 | M 2.46 | F 1.81 | I 1.5 | V 2.5 | S 2.21 | P 2.48 | W 1.51 | C 1.65 | L 1.64 | N 2.25 | Y 1.68 | K 1.75 | G 2.55 | E 2.29
D3: C 1.85 | A 2.27 | E 2.27 | F 1.93
L2: R 2.25 | I 1.78 | P 3.02 | S 2.17 | C 1.95 | Y 1.64 | N 2.31 | D 2.55 | A 2.68 | G 2.33 | Q 2.42 | K 2.4 | M 1.94 | T 2.02 | H 2.51 | F 1.98 | V 2.31 | W 1.63 | E 2.97

Variants of: B2
Assay: as above
Details: c terminus: a fixed tail appended

Protein stability index, by site and new letter:
K2: W 3.69 | Y 2.95
T20: M 4.3 | Q 4.11 | H 3.94 | C 2.54 | I 3.29 | E 4.22 | N 3.61 | D 4.5 | K 3.54 | F 3.06 | P 4.41
Q14: T 3.4 | G 2.52 | Y 3.4 | A 2.81 | P 4.36 | I 3.11 | V 3.07 | R 1.85 | M 3.64 | W 3.37 | C 2.37 | S 1.89 | F 1.92 | H 1.57 | D 3.06 | E 3.41
Y23: L 3.96 | K 5.33 | I 4.07 | N 4.83 | T 5.12 | E 4.51 | P 4.44 | C 4.28 | D 4.64 | S 4.39 | H 4.93 | Q 4.04 | G 4.34 | V 4.05
D21: P 3.83 | F 2.59 | N 3.24 | R 3.46 | L 3.53 | C 4.41 | A 3.03 | K 3.91 | E 1.79 | Y 2.97 | T 3.9 | M 3.46 | V 3.21 | I 3.13 | H 3.57
Q15: S 3.26 | N 3.07 | D 3.71 | H 3.76 | L 2.76 | C 2.15
K8: W 3.3 | Y 3.22 | R 2.75 | M 3.47 | T 2.77 | Q 4.11 | C 3.48 | F 1.63 | N 2.77 | I 3.04 | A 3.52 | P 3.76 | S 3.55 | G 3.85 | H 2.99 | L 1.99
P24: N 2.18 | S 3.43 | H 4.02 | F 3.48 | G 4.31 | M 4.09 | A 2.66 | L 3.56 | W 1.91 | Q 3.65 | C 3.62 | D 4.33 | Y 2.73 | K 3.09 | R 2.67 | I 3.44
K7: M 3.72 | Q 3.96 | S 2.48 | F 2.42 | W 2.95 | N 2.21 | E 2.82 | T 2.78 | D 3.07 | Y 3.06
R17: T 2.61 | C 2.96 | L 2.32 | H 2.88 | I 3.68 | E 3.13 | N 3.34 | P 3.06 | K 2.59 | D 3.8 | G 3.91 | F 2.88
A9: I 3.08 | M 2.54 | Q 2.89 | H 2.6 | C 2.77 | Y 3.35 | N 4.09

Reference: the supplement of paper PMC10567573
